Laboratory results from the supplement of paper PMC5998384.

Columns and labels:
HeLa Kyoto [1] = assay: solubility in G1/S (NP-40 vs SDS abundance) (log2 ratio); higher = more soluble; settings: cell cycle stage: G1/S
HeLa Kyoto [2] = assay: melting temperature (median over replicates), in situ; higher = more thermally stable
HeLa Kyoto [3] = assay: solubility change mitosis vs G1/S (difference of NP-40 vs SDS log2 ratios) (log2 ratio difference); higher = more soluble in mitosis
HeLa Kyoto [4] = assay: thermal stability score vs G1/S (z-score of summed log2 fold changes over temperatures); higher = more thermally stable than in G1/S
[5] = cell cycle stage: early G1 (4.5 h after nocodazole release)
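Throughout, for melting temperature (median over replicates), in situ: HeLa Kyoto cells synchronized by double thymidine or nocodazole block, proteins quantified by TMT10plex mass spectrometry, three independent biological replicates.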
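Throughout, for solubility change mitosis vs G1/S (difference of NP-40 vs SDS log2 ratios): synchronized HeLa Kyoto cells (double thymidine block for G1/S, nocodazole release for mitosis), protein amounts in NP-40 versus SDS lysates quantified by mass spectrometry, three biological replicates.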
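Throughout, for solubility in G1/S (NP-40 vs SDS abundance): HeLa Kyoto cells arrested at G1/S by double thymidine block, proteins quantified by TMT10plex mass spectrometry in mild NP-40 versus SDS extracts, three biological replicates.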
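Throughout, for thermal stability score vs G1/S (z-score of summed log2 fold changes over temperatures): synchronized HeLa Kyoto cells, proteins quantified by TMT10plex mass spectrometry, three biological replicates, mitosis taken 0.5 h after nocodazole release, G1/S directly after double thymidine block.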

Row | Sequence | solubility in G1/S (log2) (HeLa Kyoto [1]) | melting temperature (HeLa Kyoto [2]; cell cycle stage: G1/S) | melting temperature (HeLa Kyoto [2]; cell cycle stage: mitosis) | solubility change mitosis (log2) (HeLa Kyoto [3]) | thermal stability score (HeLa Kyoto [4]; [5]) | thermal stability score (HeLa Kyoto [4]; cell cycle stage: mitosis)
1 | MSVVGIDLGFLNCYIAVARSGGIETIANEYSDRCTPACISLGSRTRAIGNAAKSQIVTNVRNTIHGFKKLHGRSFDDPIVQTERIRLPYELQKMPNGSAGVKVRYLEEERPFAIEQVTGMLLAKLKETSENALKKPVADCVISIPSFFTDAERRSVMAAAQVAGLNCLRLMNETTAVALAYGIYKQDLPPLDEKPRNVVFIDMGHSAYQVLVCAFNKGKLKVLATTFDPYLGGRNFDEALVDYFCDEFKTKYKINVKENSRALLRLYQECEKLKKLMSANASDLPLNIECFMNDLDVSSKMNRAQFEQLCASLLARVEPPLKAVMEQANLQREDISSIEIVGGATRIPAVKEQITKFFLKDISTTLNADEAVARGCALQCAILSPAFKVREFSITDLVPYSITLRWKTSFEDGSGECEVFCKNHPAPFSKVITFHKKEPFELEAFYTNLHEVPYPDARIGSFTIQNVFPQSDGDSSKVKVKVRVNIHGIFSVASASVIEKQNLEGDHSDAPMETETSFKNENKDNMDKMQVDQEEGHQKCHAEHTPEEEIDHTGAKTKSAVSDKQDRLNQTLKKGKVKSIDLPIQSSLCRQLGQDLLNSYIENEGKMIMQDKLEKERNDAKNAVEEYVYDFRDRLGTVYEKFITPEDLSKLSAVLEDTENWLYEDGEDQPKQVYVDKLQELKKYGQPIQMKYMEHEERPKALNDLGKKIQLVMKVIEAYRNKDERYDHLDPTEMEKVEKCISDAMSWLNSKMNAQNKLSLTQDPVVKVSEIVAKSKELDNFCNPIIYKPKPKAEVPEDKPKANSEHNGPMDGQSGTETKSDSTKDSSQHTKSSGEMEVD [HSPA4L] | 0.145 | 49.8 °C | 49.9 °C | -0.0487 | 1.4 | 1.87
2 | MSVVGIDLGFQSCYVAVARAGGIETIANEYSDRCTPACISFGPKNRSIGAAAKSQVISNAKNTVQGFKRFHGRAFSDPFVEAEKSNLAYDIVQLPTGLTGIKVTYMEEERNFTTEQVTAMLLSKLKETAESVLKKPVVDCVVSVPCFYTDAERRSVMDATQIAGLNCLRLMNETTAVALAYGIYKQDLPALEEKPRNVVFVDMGHSAYQVSVCAFNRGKLKVLATAFDTTLGGRKFDEVLVNHFCEEFGKKYKLDIKSKIRALLRLSQECEKLKKLMSANASDLPLSIECFMNDVDVSGTMNRGKFLEMCNDLLARVEPPLRSVLEQTKLKKEDIYAVEIVGGATRIPAVKEKISKFFGKELSTTLNADEAVTRGCALQCAILSPAFKVREFSITDVVPYPISLRWNSPAEEGSSDCEVFSKNHAAPFSKVLTFYRKEPFTLEAYYSSPQDLPYPDPAIAQFSVQKVTPQSDGSSSKVKVKVRVNVHGIFSVSSASLVEVHKSEENEEPMETDQNAKEEEKMQVDQEEPHVEEQQQQTPAENKAESEEMETSQAGSKDKKMDQPPQAKKAKVKTSTVDLPIENQLLWQIDREMLNLYIENEGKMIMQDKLEKERNDAKNAVEEYVYEMRDKLSGEYEKFVSEDDRNSFTLKLEDTENWLYEDGEDQPKQVYVDKLAELKNLGQPIKIRFQESEERPKLFEELGKQIQQYMKIISSFKNKEDQYDHLDAADMTKVEKSTNEAMEWMNNKLNLQNKQSLTMDPVVKSKEIEAKIKELTSTCSPIISKPKPKVEPPKEEQKNAEQNGPVDGQGDNPGPQAAEQGTDTAVPSDSDKKLPEMDID [HSPA4] | 0.198 | 51.3 °C | 51.1 °C | -0.0794 | 0.436 | 1.85
3 | MSWAARPPFLPQRHAAGQCGPVGVRKEMHCGVASRWRRRRPWLDPAAAAAAAVAGGEQQTPEPEPGEAGRDGMGDSGRDSRSPDSSSPNPLPQGVPPPSPPGPPLPPSTAPSLGGSGAPPPPPMPPPPLGSPFPVISSSMGSPGLPPPAPPGFSGPVSSPQINSTVSLPGGGSGPPEDVKPPVLGVRGLHCPPPPGGPGAGKRLCAICGDRSSGKHYGVYSCEGCKGFFKRTIRKDLTYSCRDNKDCTVDKRQRNRCQYCRYQKCLATGMKREAVQEERQRGKDKDGDGEGAGGAPEEMPVDRILEAELAVEQKSDQGVEGPGGTGGSGSSPNDPVTNICQAADKQLFTLVEWAKRIPHFSSLPLDDQVILLRAGWNELLIASFSHRSIDVRDGILLATGLHVHRNSAHSAGVGAIFDRVLTELVSKMRDMRMDKTELGCLRAIILFNPDAKGLSNPSEVEVLREKVYASLETYCKQKYPEQQGRFAKLLLRLPALRSIGLKCLEHLFFFKLIGDTPIDTFLMEMLEAPHQLA [RXRB] | 0.264 | 47.6 °C | 49.1 °C | -0.14 | 0.348 | 0.163
4 | MSWGTELWDQFDNLEKHTQWGIDILEKYIKFVKERTEIELSYAKQLRNLSKKYQPKKNSKEEEEYKYTSCKAFISNLNEMNDYAGQHEVISENMASQIIVDLARYVQELKQERKSNFHDGRKAQQHIETCWKQLESSKRRFERDCKEADRAQQYFEKMDADINVTKADVEKARQQAQIRHQMAEDSKADYSSILQKFNHEQHEYYHTHIPNIFQKIQEMEERRIVRMGESMKTYAEVDRQVIPIIGKCLDGIVKAAESIDQKNDSQLVIEAYKSGFEPPGDIEFEDYTQPMKRTVSDNSLSNSRGEGKPDLKFGGKSKGKLWPFIKKNKLMSLLTSPHQPPPPPPASASPSAVPNGPQSPKQQKEPLSHRFNEFMTSKPKIHCFRSLKRGLSLKLGATPEDFSNLPPEQRRKKLQQKVDELNKEIQKEMDQRDAITKMKDVYLKNPQMGDPASLDHKLAEVSQNIEKLRVETQKFEAWLAEVEGRLPARSEQARRQSGLYDSQNPPTVNNCAQDRESPDGSYTEEQSQESEMKVLATDFDDEFDDEEPLPAIGTCKALYTFEGQNEGTISVVEGETLYVIEEDKGDGWTRIRRNEDEEGYVPTSYVEVCLDKNAKDS [FNBP1] | 0.298 | 49.7 °C | 49.4 °C | -0.129 | 0.62 | 0.929
5 | MSWGTELWDQFDSLDKHTQWGIDFLERYAKFVKERIEIEQNYAKQLRNLVKKYCPKRSSKDEEPRFTSCVAFFNILNELNDYAGQREVVAEEMAHRVYGELMRYAHDLKTERKMHLQEGRKAQQYLDMCWKQMDNSKKKFERECREAEKAQQSYERLDNDTNATKADVEKAKQQLNLRTHMADENKNEYAAQLQNFNGEQHKHFYVVIPQIYKQLQEMDERRTIKLSECYRGFADSERKVIPIISKCLEGMILAAKSVDERRDSQMVVDSFKSGFEPPGDFPFEDYSQHIYRTISDGTISASKQESGKMDAKTTVGKAKGKLWLFGKKPKPQSPPLTPTSLFTSSTPNGSQFLTFSIEPVHYCMNEIKTGKPRIPSFRSLKRGWSVKMGPALEDFSHLPPEQRRKKLQQRIDELNRELQKESDQKDALNKMKDVYEKNPQMGDPGSLQPKLAETMNNIDRLRMEIHKNEAWLSEVEGKTGGRGDRRHSSDINHLVTQGRESPEGSYTDDANQEVRGPPQQHGHHNEFDDEFEDDDPLPAIGHCKAIYPFDGHNEGTLAMKEGEVLYIIEEDKGDGWTRARRQNGEEGYVPTSYIDVTLEKNSKGS [FNBP1L] | 0.339 | 51.1 °C | 51.1 °C | -0.034 | -0.0981 | -0.548
6 | MSWLSSSQGVVLTAYHPSGKDQTVGNSHAKAGEEATSSRRYGQYTMNQESTTIKVMEKPPFDRSISQDSLDELSMEDYWIELENIKKSSENSQEDQEVVVVKEPDEGELEEEWLKEAGLSNLFGESAGDPQESIVFLSTLTRTQAAAVQKRVETVSQTLRKKNKQYQIPDVRDIFAQQRESKETAPGGTESQSLRTNENKYQGRDDEASNLVGEEKLIPPEETPAPETDINLEVSFAEQALNQKESSKEKIQKSKGDDATLPSFRLPKDKTGTTRIGDLAPQDMKKVCHLALIELTALYDVLGIELKQQKAVKIKTKDSGLFCVPLTALLEQDQRKVPGMRIPLIFQKLISRIEERGLETEGLLRIPGAAIRIKNLCQELEAKFYEGTFNWESVKQHDAASLLKLFIRELPQPLLSVEYLKAFQAVQNLPTKKQQLQALNLLVILLPDANRDTLKALLEFLQRVIDNKEKNKMTVMNVAMVMAPNLFMCHALGLKSSEQREFVMAAGTANTMHLLIKYQKLLWTIPKFIVNQVRKQNTENHKKDKRAMKKLLKKMAYDREKYEKQDKSTNDADVPQGVIRVQAPHLSKVSMAIQLTEELKASDVLARFLSQESGVAQTLKKGEVFLYEIGGNIGERCLDDDTYMKDLYQLNPNAEWVIKSKPL [ARHGAP18] | 0.188 | 50 °C | 50 °C | -0.128 | 0.338 | 0.693
7 | MSYDYHQNWGRDGGPRSSGGGYGGGPAGGHGGNRGSGGGGGGGGGGRGGRGRHPGHLKGREIGMWYAKKQGQKNKEAERQERAVVHMDERREEQIVQLLNSVQAKNDKESEAQISWFAPEDHGYGTEVSTKNTPCSENKLDIQEKKLINQEKKMFRIRNRSYIDRDSEYLLQENEPDGTLDQKLLEDLQKKKNDLRYIEMQHFREKLPSYGMQKELVNLIDNHQVTVISGETGCGKTTQVTQFILDNYIERGKGSACRIVCTQPRRISAISVAERVAAERAESCGSGNSTGYQIRLQSRLPRKQGSILYCTTGIILQWLQSDPYLSSVSHIVLDEIHERNLQSDVLMTVVKDLLNFRSDLKVILMSATLNAEKFSEYFGNCPMIHIPGFTFPVVEYLLEDVIEKIRYVPEQKEHRSQFKRGFMQGHVNRQEKEEKEAIYKERWPDYVRELRRRYSASTVDVIEMMEDDKVDLNLIVALIRYIVLEEEDGAILVFLPGWDNISTLHDLLMSQVMFKSDKFLIIPLHSLMPTVNQTQVFKRTPPGVRKIVIATNIAETSITIDDVVYVIDGGKIKETHFDTQNNISTMSAEWVSKANAKQRKGRAGRVQPGHCYHLYNGLRASLLDDYQLPEILRTPLEELCLQIKILRLGGIAYFLSRLMDPPSNEAVLLSIRHLMELNALDKQEELTPLGVHLARLPVEPHIGKMILFGALFCCLDPVLTIAASLSFKDPFVIPLGKEKIADARRKELAKDTRSDHLTVVNAFEGWEEARRRGFRYEKDYCWEYFLSSNTLQMLHNMKGQFAEHLLGAGFVSSRNPKDPESNINSDNEKIIKAVICAGLYPKVAKIRLNLGKKRKMVKVYTKTDGLVAVHPKSVNVEQTDFHYNWLIYHLKMRTSSIYLYDCTEVSPYCLLFFGGDISIQKDNDQETIAVDEWIVFQSPARIAHLVKELRKELDILLQEKIESPHPVDWNDTKSRDCAVLSAIIDLIKTQEKATPRNFPPRFQDGYYS [DHX36] | -0.25 | 50.8 °C | 51.5 °C | -0.0322 | 0.36 | 0.349
8 | MSYGPLDMYRNPGPSGPQLRDFSSIIQTCSGNIQRISQATAQIKNLMSQLGTKQDSSKLQENLQQLQHSTNQLAKETNELLKELGSLPLPLSTSEQRQQRLQKERLMNDFSAALNNFQAVQRRVSEKEKESIARARAGSRLSAEERQREEQLVSFDSHEEWNQMQSQEDEVAITEQDLELIKERETAIRQLEADILDVNQIFKDLAMMIHDQGDLIDSIEANVESSEVHVERATEQLQRAAYYQKKSRKKMCILVLVLSVIILILGLIIWLVYKTK [STX12] | -0.121 | 53.9 °C | 54.3 °C | 0.0226 | -1.25 | -1.93
9 | MSYIPGQPVTAVVQRVEIHKLRQGENLILGFSIGGGIDQDPSQNPFSEDKTDKGIYVTRVSEGGPAEIAGLQIGDKIMQVNGWDMTMVTHDQARKRLTKRSEEVVRLLVTRQSLQKAVQQSMLS [TAX1BP3] | 0.277 | 49.1 °C | 49.2 °C | 0.0294 | 1.74 | 1.25
10 | MSYPGYPPTGYPPFPGYPPAGQESSFPPSGQYPYPSGFPPMGGGAYPQVPSSGYPGAGGYPAPGGYPAPGGYPGAPQPGGAPSYPGVPPGQGFGVPPGGAGFSGYPQPPSQSYGGGPAQVPLPGGFPGGQMPSQYPGGQPTYPSQINTDSFSSYPVFSPVSLDYSSEPATVTQVTQGTIRPAANFDAIRDAEILRKAMKGFGTDEQAIVDVVANRSNDQRQKIKAAFKTSYGKDLIKDLKSELSGNMEELILALFMPPTYYDAWSLRKAMQGAGTQERVLIEILCTRTNQEIREIVRCYQSEFGRDLEKDIRSDTSGHFERLLVSMCQGNRDENQSINHQMAQEDAQRLYQAGEGRLGTDESCFNMILATRSFPQLRATMEAYSRMANRDLLSSVSREFSGYVESGLKTILQCALNRPAFFAERLYYAMKGAGTDDSTLVRIVVTRSEIDLVQIKQMFAQMYQKTLGTMIAGDTSGDYRRLLLAIVGQ [ANXA7] | 0.437 | 50.7 °C | 51.3 °C | 0.0486 | 2.36 | 2
